This passage reports mean FL, % Positive and GEO MEAN Fluorescence results from patent US20100196266A1.

The target of assay [1] is human CD20 on cells (human) (UniProt P11836). In words: flow cytometry, 697 (ALL) cells; no mAb 4.9.
For assay [2] the target is unchanged. Nature of the assay: flow cytometry, REH (ALL) cells; no mAb 3.9.
Assay [3] has the same target. In words: flow cytometry, K562 (CML) cells; no mAb 3.2.
The target is the same in assay [4]. Nature of the assay: flow cytometry, MN60 (ALL) cells; no mAb 8.1.
Assay [5] shares this target. Nature of the assay: flow cytometry, WAC (CLL) cells; no mAb 15.8.
Assay [6] shares this target. In words: flow cytometry, MEC-1 (CLL) cells; no mAb 4.7.
For assay [7] the target is unchanged. Nature of the assay: flow cytometry, GDM-1 (AML) cells; no mAb 16.8.
Assay [8] has the same target. Nature of the assay: flow cytometry, RS4;11 (ALL) cells; no mAb 6.4.
Assay [9] shares this target. Nature of the assay: flow cytometry, Jeko-1 (MCL) cells; no mAb 14.3.
The target of assay [10] is canine CD20 on dog lymphocytes and lymphoma cells (dog) (UniProt Q3C2E2). Nature of the assay: flow cytometry, dog lymphoma aspirate; none 3.37.
canine CD20 on dog lymphocytes and lymphoma cells (dog), sequence (Q3C2E2 whole entry): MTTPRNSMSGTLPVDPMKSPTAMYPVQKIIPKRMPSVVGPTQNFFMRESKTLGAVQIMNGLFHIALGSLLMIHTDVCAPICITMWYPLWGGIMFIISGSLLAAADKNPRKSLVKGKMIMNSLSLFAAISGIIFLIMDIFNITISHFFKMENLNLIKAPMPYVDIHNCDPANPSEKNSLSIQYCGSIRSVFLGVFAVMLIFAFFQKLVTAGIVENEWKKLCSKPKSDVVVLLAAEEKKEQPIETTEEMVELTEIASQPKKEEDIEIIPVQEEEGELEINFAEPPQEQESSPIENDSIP
For assay [11] the target is unchanged. Nature of the assay: flow cytometry, dog lymphoma aspirate; none 3.85.
For assay [12], the target named is human CD20 on cells (human) (UniProt P11836). In words: flow cytometry, Kasumi-3 (AML) cells; no mAb 9.6.
Assay [13] has the same target. Nature of the assay: flow cytometry, Kasumi-1 (AML) cells; no mAb 18.2.
For assay [14] the target is unchanged. In words: flow cytometry, Granta-519 (MCL) cells; no mAb 15.3.
In assay [15] the target is canine CD20 on dog lymphocytes and lymphoma cells (dog) (UniProt Q3C2E2). Nature of the assay: flow cytometry, canine lymphoma aspirate 150836; none 3.4.
For assay [16] the target is unchanged. Nature of the assay: flow cytometry, canine lymphoma aspirate 150836; none 3.9.
The target in assay [17] is human CD20 on cells (human) (UniProt P11836). Nature of the assay: indirect flow cytometry, Namalwa cells, FITC-GAM; none 2.91.
For assay [18] the target is unchanged. In words: flow cytometry, HC-1 (hairy cell leukemia) cells; no mAb 4.8.
For assay [19], the target named is human leukocyte antigen-DR (HLA-DR) on human lymphoma and leukemia cell lines and human lymphocytes (human). In words: flow cytometry, 697 (ALL) cells; no mAb 4.9; isotype control.
Assay [20] has the same target. Nature of the assay: flow cytometry, REH (ALL) cells; no mAb 3.9; isotype control.
Assay [21] has the same target. In words: flow cytometry, K562 (CML) cells; no mAb 3.2; isotype control.
Assay [22] shares this target. In words: flow cytometry, MN60 (ALL) cells; no mAb 8.1; isotype control.
For assay [23] the target is unchanged. Nature of the assay: flow cytometry, WAC (CLL) cells; no mAb 15.8; isotype control.
Assay [24] shares this target. In words: flow cytometry, MEC-1 (CLL) cells; no mAb 4.7; isotype control.
For assay [25] the target is unchanged. Nature of the assay: flow cytometry, GDM-1 (AML) cells; no mAb 16.8; isotype control.
Assay [26] shares this target. In words: flow cytometry, RS4;11 (ALL) cells; no mAb 6.4; isotype control.
For assay [27] the target is unchanged. Nature of the assay: flow cytometry, Jeko-1 (MCL) cells; no mAb 14.3; isotype control.
Assay [28] shares this target. In words: flow cytometry, Kasumi-3 (AML) cells; no mAb 9.6; isotype control.
Assay [29] has as its target antigen recognised by L243 on canine lymphocytes and canine lymphoma cells (HLA-DR of the dog) (dog). Nature of the assay: flow cytometry, dog lymphoma aspirate; none 3.37; control antibody.
For assay [30] the target is unchanged. In words: flow cytometry, dog lymphoma aspirate; none 3.85; control antibody.
Assay [31] deals with human leukocyte antigen-DR (HLA-DR) on human lymphoma and leukemia cell lines and human lymphocytes (human). In words: flow cytometry, Kasumi-1 (AML) cells; no mAb 18.2; isotype control.
For assay [32] the target is unchanged. In words: flow cytometry, Granta-519 (MCL) cells; no mAb 15.3; isotype control.
For assay [33], the target named is antigen recognised by L243 on canine lymphocytes and canine lymphoma cells (HLA-DR of the dog) (dog). Nature of the assay: flow cytometry, canine lymphoma aspirate 150836; none 3.4; control antibody.
Assay [34] shares this target. Nature of the assay: flow cytometry, canine lymphoma aspirate 150836; none 3.9; control antibody.
The target in assay [35] is human leukocyte antigen-DR (HLA-DR) on human lymphoma and leukemia cell lines and human lymphocytes (human). Nature of the assay: indirect flow cytometry, Namalwa cells, FITC-GAM; none 2.91; control antibody.
For assay [36] the target is unchanged. In words: flow cytometry, HC-1 (hairy cell leukemia) cells; no mAb 4.8; isotype control.
Assay [37] has as its target canine CD22 on dog lymphocytes and lymphoma cells (dog). In words: flow cytometry, dog lymphoma aspirate; none 3.24.
Assay [38] has the same target. In words: flow cytometry, dog lymphoma aspirate; none 4.48.
Assay [39] has the same target. In words: flow cytometry, canine lymphoma aspirate 150836; none 3.2.
Assay [40] shares this target. In words: flow cytometry, canine lymphoma aspirate 150836; none 4.5.
Assay [41] has as its target human leukocyte antigen-DR (HLA-DR) on human lymphoma and leukemia cell lines and human lymphocytes (human). Nature of the assay: indirect flow cytometry, Namalwa cells, FITC-GAH; none 2.52; irrelevant antibody.
Assay [42] deals with canine CD22 on dog lymphocytes and lymphoma cells (dog). In words: flow cytometry, dog lymphoma aspirate; none 3.37.
The target is the same in assay [43]. In words: flow cytometry, dog lymphoma aspirate; none 3.85.
Assay [44] has the same target. In words: flow cytometry, canine lymphoma aspirate 150836; none 3.4.
Assay [45] has the same target. In words: flow cytometry, canine lymphoma aspirate 150836; none 3.9.
Assay [46] has as its target human leukocyte antigen-DR (HLA-DR) on human lymphoma and leukemia cell lines and human lymphocytes (human). Nature of the assay: indirect flow cytometry, Namalwa cells, FITC-GAM; none 2.91; irrelevant antibody.

human CD20 on cells (human), sequence (P11836 whole entry): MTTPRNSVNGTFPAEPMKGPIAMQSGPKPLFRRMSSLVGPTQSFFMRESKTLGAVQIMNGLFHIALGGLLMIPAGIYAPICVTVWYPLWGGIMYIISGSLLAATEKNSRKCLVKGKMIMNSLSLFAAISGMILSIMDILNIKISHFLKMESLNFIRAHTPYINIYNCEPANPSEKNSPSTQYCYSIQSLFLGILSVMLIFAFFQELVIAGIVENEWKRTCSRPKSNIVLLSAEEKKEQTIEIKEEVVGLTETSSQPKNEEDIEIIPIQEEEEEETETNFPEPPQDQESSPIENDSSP

On to 2B8 (murine anti-CD20 mAb) (antibody), for which the mean FL in [1] stood at 6.9; in [2], 23.5; in assay [3] it was 4.3; in assay [4], 162; in [5] it was 275; in assay [6], 175. Besides, the mean FL in assay [7] amounted to 15.6; in assay [8], 11.5; in [9], 455; in assay [10], 3.11; in assay [12] it was 11; in [13], 14.5. For the same substance, the mean FL in assay [14] is 677; in assay [15], 3.1; in assay [18], 42.2. The % Positive came out at 2.61% in assay [11] and 2.6% in assay [16]. Besides, in assay [17], the GEO MEAN Fluorescence worked out at 6.16.
For “Ag8 (P3x63 Ag8, murine myeloma derived mAb) (antibody)”, the mean FL worked out at 5.6 in assay [19]; 3.9 in [20]; 4.1 in assay [21]; 10.5 in assay [22]; 14.4 in assay [23]; 6 in [24]. In addition, the mean FL in assay [25] came out at 20.1; in assay [26], 8.6; in assay [27], 17.4; in [28] it was 15.7; in assay [29], 3.04; in [31], 17. Moreover, the mean FL in assay [32] came to 16.9; in [33] it was 3; in assay [36], 3.5. Further, the results for the % Positive in assay [30] and in assay [34] were 2.81% and 2.8%, respectively. The substance also had a GEO MEAN Fluorescence in assay [35] of 3.64.
Take “epratuzumab (hLL2, humanized anti-CD22 mAb) (antibody)”: the values for the mean FL in assay [37] and in [39] were 3.37 and 3.4, respectively. In addition, the values for the % Positive in [38] and in assay [40] were 4.85% and 4.9%, respectively.
Take hRS7 (humanized anti-EGP-1) (antibody): the GEO MEAN Fluorescence in [41] stood at 2.47.
As for murine LL2 (anti-human CD22) (antibody), the mean FL in assay [42] came out at 3.73; in [44] it was 3.7. Further, the results for the % Positive in assay [43] and in assay [45] were 5.05% and 5.1%, respectively.
murine RS7 (antibody) registered a GEO MEAN Fluorescence in assay [46] of 3.39.
